Measurements from publication PMC12475115, “Arabidopsis MYB47 and MYB95 transcription factors regulate jasmonate-inducible ER-body formation”.

T1: GST-MYB95 (Arabidopsis thaliana, UniProt Q7DSY5 1-271)
T1 sequence: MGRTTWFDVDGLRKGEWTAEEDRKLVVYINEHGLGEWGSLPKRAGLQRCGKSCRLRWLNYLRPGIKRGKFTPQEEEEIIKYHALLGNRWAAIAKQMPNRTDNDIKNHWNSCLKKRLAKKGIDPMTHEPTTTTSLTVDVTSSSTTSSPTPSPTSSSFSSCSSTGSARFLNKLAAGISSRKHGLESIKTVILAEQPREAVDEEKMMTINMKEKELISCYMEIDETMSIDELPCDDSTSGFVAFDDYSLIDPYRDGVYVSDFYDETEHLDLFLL

T2: GST-MYB47 (Arabidopsis thaliana, UniProt Q6R0C2 1-267)
T2 sequence: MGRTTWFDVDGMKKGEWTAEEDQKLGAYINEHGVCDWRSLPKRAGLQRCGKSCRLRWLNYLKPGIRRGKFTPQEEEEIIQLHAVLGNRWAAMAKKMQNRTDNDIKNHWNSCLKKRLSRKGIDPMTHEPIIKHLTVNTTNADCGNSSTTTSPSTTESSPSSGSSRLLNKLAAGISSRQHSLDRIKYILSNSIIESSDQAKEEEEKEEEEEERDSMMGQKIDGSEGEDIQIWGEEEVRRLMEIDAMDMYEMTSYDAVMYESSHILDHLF


Tests used:
GST-MYB95 [1] = biological target: T1, GST-MYB95; assay: EMSA; 5 mM Mg2+; 10 mM Tris-HCl pH 7.5, 50 mM KCl, 1 mM DTT, 2.5% glycerol, 5 mM MgCl2, 0.1% IGEPAL CA-630, 0.05 ug/uL poly(dI-dC); 500 ng protein, probe 5 uM; competitor 20 min then probe 30 min at room temperature; conditions: protein: recombinant; tags: N-terminal GST (pDEST15); label: 5' biotin on strand 1 as probe; blunt
GST-MYB47 [2] = biological target: T2, GST-MYB47; assay: as above; conditions: protein: recombinant; tags: N-terminal GST (pDEST15); label: 5' biotin on strand 1 as probe; blunt
GST-MYB95 [3] = biological target: T1, GST-MYB95; assay: competition EMSA; 20-fold excess over pTSA1 probe; 10 mM Tris-HCl pH 7.5, 50 mM KCl, 1 mM DTT, 2.5% glycerol, 5 mM MgCl2, 0.1% IGEPAL CA-630, 0.05 ug/uL poly(dI-dC); 500 ng protein, probe 5 uM; competitor 20 min then probe 30 min at room temperature; conditions: protein: recombinant; tags: N-terminal GST (pDEST15); blunt
GST-MYB47 [4] = biological target: T2, GST-MYB47; assay: as above; conditions: protein: recombinant; tags: N-terminal GST (pDEST15); blunt

Binder | binding result (GST-MYB95 [1]) | binding result (GST-MYB47 [2]) | binding result (GST-MYB95 [3]) | binding result (GST-MYB47 [4])
pTSA1 probe (dsDNA) DNA 1: GAATGAAATCCACGTTTAAGTTAGTTACAACGGTTT DNA 2: AAACCGTTGTAACTAACTTAAACGTGGATTTCATTC | binds | binds | – | –
pTSA1-m2 (box2 mutated) (dsDNA) DNA 1: GAATGAAATCCACGTTTAACCCCTTTACAACGGTTT DNA 2: AAACCGTTGTAAAGGGGTTAAACGTGGATTTCATTC | – | – | no binding | no binding
pTSA1-m1 (box1 mutated) (dsDNA) DNA 1: GAATGAAATCTTTCCCCAAGTTAGTTACAACGGTTT DNA 2: AAACCGTTGTAACTAACTTGGGGAAAGATTTCATTC | – | – | binds | binds
